Test results taken from the DeepSol protein solubility set.

experiment: soluble on expression in E. coli; label from the status in PepcDB or PDB records

| Sequence | soluble on expression in E. coli |
| --- | --- |
| MKLTLAIPSLNLDEDEIRIPLCLHAFNKILQYGSLHRQSCTASAFYARYLWCGRLVERAAQSLNMPSEAVALATPVWQKMGMHQANVLTAEYLNVGTDEAERICRDLSAFYGDIPWRFVPVLPELWLVSLPCAYRWGAKPVLDLGGLLGADDQPDGEDALEWLRVQTEIQMWLAAHPVNHNRKKRGLPELNGLWLWDGTNGGAQGGTLFADTVWSRFHSDRRALPDNFRAYEETAAHLPDTHHILFMDDLRLTALTGDRERYAAILQQWEERWFAPIYEAVRTGKIKRLDITTDGQHGGTLTFKPADRWKFWRGAKTFDGIW | not soluble |
| MGSDKIHHHHHHLSFLYVYERSAKIGVQENCVVVESKKENLKRILPIEGVENVIIFGDASLSSNCVKQFMERDINLTWLSSRGKFYGRLESTRNVNIYRQRKQFACGEDDEFCLALAKRIILAKVKNQITILRRYRRNRPEKSVQKIIDAMAKLLPIMERVHNKDELMGHEGMAARYYYQGLAELVEPDFAFSGRNRQPPRDPFNSLLSFAYTLLMYDLYTAAVNRGLNPYASFLHSIRRGHPALCSDLMEEWRAILADSLALYVTSKGIIKRENFEKPNEEGGVYLDGIGSKAFIAEYEKKVRGRSNYLAYVDYSVSFRRAMEMQCQRLAKAIEEGDPSIYQPVVIR | not soluble |
| MSECLMFGMDCEARCMTSMTADEENICFLVGTNNIKNDKNQVNKLFMDPEASRLMSKTFRHPAGEVRAIAAHPTKSTILATCTADFSSLGGTHSITIWNIEEDKRTLETVSRLPTEQVMSCLEWEPNSMKCAAMTPFRPEIQLLNMENGPEIVQNLKIPLENEEDEMFSATWSPHHDGNMLGVTGGRTAWCIDCRTDNEYLKIRDAHIHRTISMDFNPNLQHVIATCGDDGYVRIWDTRSTSSALTSLHPHAHWVWSVRFHPVHDQLLLTGGSDASVVLSCAQSVSSEQQIEFRDDEEEEEDDDLVEKLQDGQLERIDEHEDSVYACAWSSADPWTFASLSYDGRMIVSNVSRKHKYALMQL | not soluble |
| MGSDKIHHHHHHMAAKPPLTLYLAAPRGFCAGVDRAIKIVEMALEKWGAPVYVRHEIVHNKFVVDGLRDKGAVFVEELEECPDDRPVIFSAHGVPKSVPAAAEARQMVYVDATCPLVSKVHIEAQRHAEAGLQMIMIGHKGHPETVGTMGQLPEGEVLLVETVEDVAQVEVRDPERLAFVTQTTLSVDDTKDIVAALQARFPAIVGPHKEDICYATTNRQEAVKEVAPKADALLVVGAPNSSNSRRLVEVGAKNGCSYAQLVQRAENIDWRALEGIQSIAITAGASAPELLVNEVIDAFRDRYEVTVELVETAVERVEFKVPRVLRTA | not soluble |
| MPTPKAFALLGPTAGGKTALALKIAETLPVEIISLDSALVYRDMDIGTAKPSASERAFVPHHLIDIIPPTESYSAARFVEDCTRLVGEISSRGRFALIVGGTMMYFRALTQGLNDLPEADACLRADLDEQKQMYGLDFLYRTLQKVDPETACRLKPNDSQRIGRALEVYYLTGKPMSTHLGSLTSHTLPFDLHTAALIPENRARLHENIALRFHLMLEQGFIGEVENLRRRYPGLTAYSPAIRCVGYRQAWKYLDGKTDFPAFVEKGIAATRQLAKRQLTWLRKTPLDCVADPFSDCTSCTRLIEAAKRFFGALEHHHHHH | soluble |
| MVTCGSIFIIRIACKDKKGQASGKDNKEKRVFRAVTGNKSESYFPFGHIFIFSQGATRTDEKSFLLSEDYEPKTVGLRCVFWRKHAREIFRFGSKNFYFSRHNEKIFAPRLFQPYSGFFSNDKREKVSMCHR | not soluble |
| GPGSMCNDDARQEGVQWPSSQQLAALADIEGDVQMKAAQLGLLSSEYRANIARVLHHYEPQAATFRTIIYASEQKRKAVERELVWTERIALLQEQRCGTTIVSTRDLMVLEREPLHPVECSLKECYQKLENVAYNELCVLRNYEYPPRQAVATMRMIMRVRGEEDLSWENVQVVLSENYFYTFFVSRMRTLLQKRLPDDVLEELEQYCLNPEHAPEALAVVSVPLGVIGSLLHAVRDYFQVMDLVKRPVEPMSVEERRKKAGELRRALQTLKEDAATATEGMADLKARIASKFVTVRDEYDDTMCPLHDDLEKKTEDFLKVLSGDIPAEEGATGEGECPDAM | not soluble |
| MDWTRRLRLQHLQLLVSLMETGNLSGTARAAHTTQPGLSKWLKELEEDVGAPLFERHARGLRPTPYGMTLFNHAQRVLTEMERARQNLEAMRSGSGSRVLLGTSPASAPSLVPRALRAFLGRYPGAQVELLEGTMNGLLERLEKRQLDVVVGRLDNYAPRASLRCEVLYSEAIVVMARPGHPLAQAAALDWEDVRRYDWIVWPPGSPIRSKLDMALTQGGRQPPAYRLESSSMLANIELLRGSDMLSIGSARVVEHLAGLGLVARLALEIPGEGAVGMCWRDEPHRDRASEDLLACLREGAAAE | not soluble |
| MKILVFGGTRFFGKKLVERLVSEGHDVTIGTRGKTEDNFGDTVKRVVLNRESRDALFQLAKEDWDVIYDNICFSPKEALYAVDAFKGKVKRYIYTSSLSVYSQKGRALVEADFNPEHYEIVIGDKEDFDYGEGKRLAEAVFFQKASFPVVAVRFPIVLGLDDYTKRLHFHINHIKNHQEIGISNGQAEIGFITSDEAAHFLEWVGVESDLTGPVNATSNGTYALNGFIKMLEEKIGELALVEEVTDDVDDSPFGIEKTYYLDNAKATEAGFVFNDLKVWLPALVTDILKENLEHHHHHH | not soluble |
| MNIELRHLRYFVAVAEELHFGRAAARLNISQPPLSQQIQALEQQIGARLLARTNRSVLLTAAGKQFLADSRQILSMVDDAAARAERLHQGEAGELRIGFTSSAPFIRAVSDTLSLFRRDYPDVHLQTREMNTREQIAPLIEGTLDMGLLRNTALPESLEHAVIVHEPLMAMIPHDHPLANNPNVTLAELAKEPFVFFDPHVGTGLYDDILGLMRRYHLTPVITQEVGEAMTIIGLVSAGLGVSILPASFKRVQLNEMRWVPIAEEDAVSEMWLVWPKHHEQSPAARNFRIHLLNALR | not soluble |
| MAKRDYYEVLGVSRDAEEREIKKAYKRLAMKFHPDRQSEDKNAEEKFKEAKEAYEILTDAQKRAAYDQYGHAAFEQGGMGGGGFGGGGGGADFSDIFGDVFGDIFGGGRRQQRASRGSDLRYNMDLTLEEAVRGVTKEIRIPTLDECDVCHGSGAKPGSSPVTCPTCHGAGQVQMRQGFFTVQQACPHCHGRGQIIKDPCNKCHGHGRVEKSKTLSVKIPAGVDTGDRIRLSGEGEAGEHGAPSGDLYVQVQVKAHPIFEREGNNLYCEVPINFAMAALGGEIEVPTLDGRVKLKIPAETQTGKMFRMRGKGVKSVRGGSQGDLLCRVVVETPVSLSEKQKQLLRELEESFVGAAGEKNSPRAKSFLDGVKKFFDDLTR | not soluble |
| MDHRRLWRAANRLASDRLGSGEMCCALTSPTSTAQSPSTSFFFGSSLPFLLATIPHTLISAIAEHAILHAWYGGPHVYPDAKLPCPTATFVFKDSPLLRVDDVTSLQWDRAQAANFLVAVLRQPAVQKELRQRLWSAVQNCHRGVLRKLESLAVQKDVEGASKEAAADRLILLDQEPGMPSPPSLSLREVRDDLFSFDELLYFVRVSPSTSSTSRQQRVECESLRSTHLFRFVTSRADVAAALRDRPRSNVSDLLFCVSLRNGDTSAKASSAPVSLSTRDKLWLLLSEMVRLRYLVAYLLNFEVMLHRVRNSTRHSQRGQSTSKEVDSAGFPGNSSSEHADAQDAENAKCIAAVFRFLDIRLHTRLAVSPHHRRFLRHARVRHCERSATPEPPDRATAAHEATDADTSVRHEARRYATVQELFSAFSKALEESTTPPSQLPATVASFTSLAKSPGEGQGAAENGIEAMSKRPDHMRGRSARQNVVQARATSDGPSSLSDTDDEFLKAIVSATRQDQPPDSTVQSTPMRATHRGGVKSPSANPGELPCSRGLPGRRCLTAERSTTCLPQSRRAAEDPHPFVDVVFERKSNRSKWPFQALRARTNASNFKVRFGGSHDASSHAAVICFQLSCTREEREKAEIAPLSGKSAADLLQQYPYVTHVNGISARKVELVVRLFRSAHVLKLRLARRPPDR | soluble |
| MGSDKIHHHHHHMIYFLCSFYGEAEGIISYYKLRKEAVHSSFQIFSSEEIKLIISGTGKINAACAVGYIGSLKSKLSKDLFVNVGICGSRSRTVGECVFINKIKDVDTNKEFYPDILLKHDFEEGNLQTFSIPVTTGQVDDVCDMEGSAFFQSASKFFQKHEIALIKIVSDNANNVNVSGELVRNLIKKSMEKINSYIENYKRIFHEKNFLSDVCTGNIEKIVSRLRLTESQSIQLKKAAVAYKIRNGKEFDFEGFLSLEVKIKNDGRKYFSNLIGSMWK | not soluble |
| MGSDKIHHHHHHVNPLLDSLQPYPFEKLRALFKDVTPNAGLAHISFGIGEPKHPTPALIRDAVVASLGGLSAYPATSGSPALRESIAKWVTQRYNLPPVDPATQVLPVSGSREALFSLAQTVLDPQKNAGGEPAIVLCPNPFYQIYEGAAILAGAQPYFVNSDPARNFACDYSAVPAEIWARTQLLYVCSPGNPTGAVLTLDDWRELFALSDRYGFVIASDECYSEIYFDEAKPPLGGLEAAHKLGRGFERLVMLSSLSKRSNVPGMRSGFVAGDAAILKDFLLYRTYHGAALSTVFQNASIAAWNDEAHVRENRAKYLQKFSTVTPMLAEVLDVRLPDAAFYLWADVSRTGLTDTVFAQRLYADYNVTVLPGSFLARTAHGVNPGRNFVRMALVADVDECTQGAQRIVDFCRALAG | not soluble |
| MGHHHHHHSHYPPIEFDKYKCKNSEDFYLFVGRLWHEKRPEEAIRGCIKAKKKIVVIGSGYLEKYLRDKYGKNPYVEIKGFVSEEEKVDLLASCKAVIYPCIAEDFGIVPIEAFASGKPVIADNSGFPPYVVNEERGIITDCSNPDNIAKAIEELEKKKYDPDKIREFAKQF | soluble |
| MGSDKIHHHHHHMPLFTEAPKSLCILRLSAVGDVCHALAVVQHIQEYYPQTEMTWIVGKTEMGLLSSIPNITLIPYDKKTGWKGVLSLWKQLKNKQFDALLNMQTAFRASILSLGIKAKFKIGFGEKRSREGQWLFVNRRIRDPFSPHVLDGFMAFAEYIGVPKAEPKWELAISQDDYKFADQFIDFSRKNLLISPCSSKAEKDWLIEGYAEVANIAHQHNINVIFCSSPAKRELEIVEKITALCHFTPTNIAGKTNLKQLTALISKVDLVLSPDSGPAHIATTQGTPVIGLYAYHNPLRTAPYNNLDNVVSVYEENAQKEFGKPSSELPWATKLKGKNLMTEIQVEPVIGQMKKLGLF | not soluble |
| MSGFRKDELIPVIIDIHGEKRKMFEDIADTVLRRVLDEEENECPPIESRGSSTSSFSTTPSSSASPLSINQLLSSSFSQPPAPQLPVPLAFNPFQLALYQSLVANNTLAFPVFGGPPSIFPLLVPPPQPQPTVESIELLKILQNMLAKQKK | not soluble |
| HHHHHHDEKRRPKRREIPLKVLVKAVLFACMLMRKTMASRVRVTILFATETGKSEALAWDLGALFSCAFNPKVVCMDKYRLSCLEEERLLLVVTSTFGNGDCPGNGEKLKKSLFMLKELNNKFRYAVFGLGSSMYPRFCAFAHDIDQKLSHLGASQLTPMGEGDELSGQEDAFRSWAVQTFKAACETFDVRGKQHIQIPKLYTSNVTWDPHHYRLVQDS | soluble |
| MSLKILVVGPSWVGDMMMSQSLYRTLRARYPQAIIDVMAPAWCRPLLSRMPEVNEAIPMPLGHGALAIGERRKLGHSVRERRYDRAYVLPNSFKSALVPFFANIPLRTGWRGEMRYGLLNDARVLDKDAWPLMVERYVALAYDNGVMRCAKDLPQPLVWPQLQVNEGEKSQACSAFNLSNDRPIIGFCPGAEFGPAKRWPHYHYAALAKKLIDDGYQIALFGSAKDNEAGKEIIAAISSEQQAWCRNLAGETQLEQAVILIAACKAVVTNDSGLMHVAAALDRPLVALYGPSSPDFTPPLSHKARVIRLITGYHKVRKGDAAEGYHQSLIDITPERVLQELNELLAEKTEHEEAEGGSHHHHHH | soluble |
| GSMEQFELFSIDKFKCNSEAKYYLNIIEGEWHPQDLNDSPLKFILSTSDDSDYICKYINTEHKQLTLYNKNNSSIVIEIFIPNDNKILLTIMNTEALGTSPRMTFIKHK | soluble |
